Experimental findings from article PMC7401798 are described below.

The target in assay [1] is Taxol-stabilized microtubules (UniProt P02550). Kind of assay: co-sedimentation.
The next assay concerns the target HIS-TAN1-GFP (maize). Kind of assay: pull-down.

Chain of HIS-TAN1-GFP (natural protein) (C0PM98 whole entry): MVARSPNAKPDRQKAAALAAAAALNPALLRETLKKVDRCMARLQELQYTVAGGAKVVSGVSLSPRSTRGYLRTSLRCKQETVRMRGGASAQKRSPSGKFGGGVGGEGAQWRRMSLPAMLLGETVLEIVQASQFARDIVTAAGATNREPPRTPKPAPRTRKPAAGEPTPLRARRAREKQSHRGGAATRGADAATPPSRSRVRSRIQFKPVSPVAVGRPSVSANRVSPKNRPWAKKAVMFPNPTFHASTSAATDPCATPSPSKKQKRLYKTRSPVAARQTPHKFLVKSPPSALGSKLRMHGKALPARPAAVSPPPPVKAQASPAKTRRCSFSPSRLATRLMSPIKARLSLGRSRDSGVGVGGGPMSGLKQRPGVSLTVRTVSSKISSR
Chain of HIS-TAN1-GFP (maize) (C0PM98 whole entry): as above
Chain of Atto488-tagged HIS-TAN1-GFP (natural protein) (C0PM98 whole entry): as above

In turn, “6xHIS-tagged ZmTAN1 (TANGLED1) (natural protein)” returned a K0.5 in assay [1] of 1.08 µM.

On to “Atto488-tagged HIS-TAN1-GFP (natural protein)”, for which the apparent affinity in assay [1] stood at 0.05 µM.

Regarding HIS-TAN1-GFP (natural protein), the apparent affinity in assay [1] was 0.595 µM.

For “tubulin dimers (from UniProt P02550 1-451) (complex)”, the stoichiometry N (tubulin dimers per HIS-TAN1-GFP) in the assay with HIS-TAN1-GFP (maize) came to 2.
